Test [1] addresses T1, human CD3 on cells (Jurkat cells, human T cells) (human, UniProt P07766 23-207).
T1 construct: whole, on cells
In words: flow cytometry, human CD3+ T cells. The text has this:
(§1) Human PBMCs were freshly isolated from the blood of healthy donors by density gradient centrifugation using Histopaque-1077 (Sigma). Human CD3+ T cells were further isolated from PBMCs using the Human T Cell Enrichment Kit (Stem Cell Technologies). Monkey PBMCs were isolated from a naïve cynomolgus monkey by density gradient centrifugation using Histopaque-1077 (Sigma). Monkey CD3+ T cells were isolated from PBMCs using the Pan T Cell Isolation Kit Non-Human Primate (Miltenyi Biotec). Purified human or monkey CD3+ T cells were stained with the testing antibodies as the primary antibody and the APC-labelled anti-human-Fc antibody (BioLegend) as the secondary antibody. After washing, the cells were analyzed on the CytoFLEX flow cytometer (Beckman Coulter) and the data was analyzed by FlowJo software.
(Flow cytometry measures light scatter and fluorescence of single cells or particles in a stream.)

Test [2] deals with T2, cynomolgus monkey CD3 on T cells (cynomolgus monkey, UniProt Q95LI5 22-198).
T2 construct: whole, on cells
In words: flow cytometry, monkey CD3+ T cells.
From the text: as §1

Test [3] deals with T3, human CD20 on cells (human B cells; Raji, SU-DHL-8, SU-DHL-4, A3KAW, NAMALWA) (human, UniProt P11836 1-297).
T3 construct: whole, on cells
T3 sequence (looked up): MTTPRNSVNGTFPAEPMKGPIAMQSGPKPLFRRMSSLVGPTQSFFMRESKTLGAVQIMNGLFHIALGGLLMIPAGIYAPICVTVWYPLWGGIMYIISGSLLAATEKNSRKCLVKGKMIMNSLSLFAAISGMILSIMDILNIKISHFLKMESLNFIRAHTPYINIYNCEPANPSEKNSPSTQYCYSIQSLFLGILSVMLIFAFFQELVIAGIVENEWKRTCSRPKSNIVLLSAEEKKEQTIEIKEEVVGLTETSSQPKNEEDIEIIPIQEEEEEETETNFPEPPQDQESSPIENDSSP
The experiment in a line: flow cytometry, Raji cells. As to the method:
(§2) Raji, SU-DHL-8, SU-DHL-4, A3KAW and NAMALWA were B-cell lymphoma cell lines with various CD20 expression levels on cell surface. Briefly, the test antibodies were serial diluted and were incubated with the tumor cells on ice. After washing, the cells were subsequently incubated with the APC-labelled anti-human-Fc secondary antibody (BioLegend) on ice. The cells were then washed with PBS prior to analysis by the CytoFLEX flow cytometer (Beckman Coulter). The data was analyzed by FlowJo software.

Test [4] has as its target T3, human CD20 on cells (human B cells; …). The experiment in a line: flow cytometry, A3KAW cells. As to the method:
as §2

For test [5], the target named is T4, cynomolgus monkey CD20 on B cells (cynomolgus monkey, UniProt M4ZHZ6 1-297).
T4 construct: whole, on cells
T4 sequence: T3 sequence (looked up) with S25P, F31L, T51A, A157V, K217R, N226S, I227V, T239V
In words: flow cytometry, monkey B cells. An excerpt: (§3) Human and monkey PBMCs were isolated as mentioned above. Human B cells were further isolated from PBMCs using the EasySep™ Human B Cell Isolation Kit (Stem Cell Technologies). Monkey B cells were isolated from PBMCs using the Non-Human B Primate Cell Isolation Kit (Stem Cell Technologies). Purified human or monkey B cells were stained with the testing antibodies as the primary antibody and the APC-labelled anti-human-Fc antibody (BioLegend) as the secondary antibody. After washing, the cells were analyzed on the CytoFLEX flow cytometer (Beckman Coulter) and the data was analyzed by FlowJo software.

The target of test [6] is T3, human CD20 on cells (human B cells; …). The experiment in a line: flow cytometry, SU-DHL-8 cells. On the procedure:
as §2

Test [7] has the same target. In words: flow cytometry, SU-DHL-4 cells. As to the method: as §2
For test [8] the target is unchanged. In words: flow cytometry, human B cells.
From the text: as §3

Test [9] has the same target. In words: flow cytometry, NAMALWA cells. On the procedure:
as §2

Test [10] addresses T1, human CD3 on cells (Jurkat cells, human …). The experiment in a line: flow cytometry on Jurkat cells, anti-human IgG AF647 secondary antibody. On the procedure: The ability of the parental huOKT3 anti-CD3 antibody TAC2245 and the activatable huOKT3 anti-CD3 antibody TY23104 to bind Jurkat cells was measured in a dose-dependent binding assay.
The Jurkat cells were thawed, washed and cultured in an incubator. 4×10⁵ Jurkat cells/well were aliquoted into 96-well plate and incubated with parental huOKT3 TAC2245 or activatable huOKT3 for 1 hour at 4° C. After centrifugation and washing, Jurkat cells were further incubated with the secondary antibody anti-human IgG AF647 for 30 minutes at 4° C. After centrifugation and washing, the Jurkat cells labelled with antibodies were re-suspended in 2% FBS DPBS and analyzed by FACS.

Test [11] has the same target. In words: cell-based or functional assay.

Substitutions are numbered along the chain they refer to. Names and notes keep the numbering of the source.

T1 sequence (P07766 23-207): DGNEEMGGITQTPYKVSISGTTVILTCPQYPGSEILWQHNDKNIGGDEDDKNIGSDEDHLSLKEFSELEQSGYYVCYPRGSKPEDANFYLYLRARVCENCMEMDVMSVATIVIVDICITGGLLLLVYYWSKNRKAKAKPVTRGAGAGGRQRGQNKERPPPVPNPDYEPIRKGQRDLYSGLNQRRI
T2 sequence (Q95LI5 22-198): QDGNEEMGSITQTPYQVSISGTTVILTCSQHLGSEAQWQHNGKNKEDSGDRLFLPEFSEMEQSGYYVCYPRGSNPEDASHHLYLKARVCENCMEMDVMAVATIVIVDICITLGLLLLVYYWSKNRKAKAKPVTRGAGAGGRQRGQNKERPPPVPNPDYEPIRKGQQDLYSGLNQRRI

B1: TY25715 (bispecific antibody, human IgG1, kappa, N297A)
light: QIVLSQSPAILSASPGEKVTMTCRASSSVSYIHWFQQKPGKSPKPWIYATSNLASGVPVRFSGSGSGTSYSLTISRVEAEDAATYYCQQWTSNPPTFGGGTKVEIKRTVAAPSVFIFPPSDEQLKSGTASVVCLLNNFYPREAKVQWKVDNALQSGNSQESVTEQDSKDSTYSLSSTLTLSKADYEKHKVYACEVTHQGLSSPVTKSFNRGEC
heavy: EVQLVQSGAEVKKPGSSVKVSCKASGYTFTSYNMHWVRQAPGKGLEWIGAIYPGSGDTSYNQKFKGRVTITADKSTSTAYMELSSLRSEDTAVYYCARSTYYGGDWYFNVWGQGTLVTVSSASTKGPSVFPLAPSSKSTSGGTAALGCLVKDYFPEPVTVSWNSGALTSGVHTFPAVLQSSGLYSLSSVVTVPSSSLGTQTYICNVNHKPSNTKVDKKVEPKSCDKTHTCPPCPAPELLGGPSVFLFPPKPKDTLMISRTPEVTCVVVDVSHEDPEVKFNWYVDGVEVHNAKTKPREEQYASTYRVVSVLTVLHQDWLNGKEYKCKVSNKALPAPIEKTISKAKGQPREPQVYTLPPSRKKLTKNQVKLTCLVKGFYPSDIAVEWESNGQPENNYKTTPPVLDCDGSFFLYSKLTVDKSRWQQGNVFSCSVMHEALHNHYTQKSLSLSPGK
chain: EAVVTQEPSLTVSPGGTVTLTCGSSTGAVTTSNYPNWVQQKPGQAPRGLIGGTNKRAPGTPARFSGSLLGGKAALTLSGAQPEDEAEYYCALWYSDLWVFGGGTKLTVLGGGGSGGGGSGGGGSGGGGSEVQLVESGGGLVQPGGSLRLSCAASGFTFSTYAINWVRQAPGKGLEWVSRIRSKYNNYATYYAESVKDRFTISRDDSKNTLYLQINSLRAEDTAVYYCVRHGNFGTSYVSWFAYWGQGTLVTVSSEPKSSDKTHTCPPCPAPELLGGPSVFLFPPKPKDTLMISRTPEVTCVVVDVSHEDPEVKFNWYVDGVEVHNAKTKPREEQYASTYRVVSVLTVLHQDWLNGKEYKCKVSNKALPAPIEKTISKAKGQPREPQVYTDPPSRDELTKNQVSLTCLVDGFYPSDIAVEWESNGQPENCYKTTPPVLDSDGSFFLYSKLTVDKSRWQQGNVFSCSVMHEALHNHYTQDSLSLSPGK
notes: also called parental CD20xCD3 bispecific antibody of TY25716
B1: in test [1], it took 28.8 nM to reach a half-maximal effect (EC50) and the “max MFI” value came to 2260 MFI. In addition, in test [2], the EC50 came out at 20.7 nM and the “max MFI” value amounted to 1120 MFI.

B2: TY25716 (bispecific antibody, human IgG1, kappa, N297A)
light: B1 light
heavy: B1 heavy
chain: EVGSYPYDDPDCPSHESDCDQGGGPLGLAGGSEAVVTQEPSLTVSPGGTVTLTCGSSTGAVTTSNYPNWVQQKPGQAPRGLIGGTNKRAPGTPARFSGSLLGGKAALTLSGAQPEDEAEYYCALWYSDLWVFGGGTKLTVLGGGGSGGGGSGGGGSGGGGSEVQLVESGGGLVQPGGSLRLSCAASGFTFSTYAINWVRQAPGKGLEWVSRIRSKYNNYATYYAESVKDRFTISRDDSKNTLYLQINSLRAEDTAVYYCVRHGNFGTSYVSWFAYWGQGTLVTVSSEPKSSDKTHTCPPCPAPELLGGPSVFLFPPKPKDTLMISRTPEVTCVVVDVSHEDPEVKFNWYVDGVEVHNAKTKPREEQYASTYRVVSVLTVLHQDWLNGKEYKCKVSNKALPAPIEKTISKAKGQPREPQVYTDPPSRDELTKNQVSLTCLVDGFYPSDIAVEWESNGQPENCYKTTPPVLDSDGSFFLYSKLTVDKSRWQQGNVFSCSVMHEALHNHYTQDSLSLSPGK
B2: the EC50 was found to be 28 nM in test [3]; 220 nM in [4]; 13.5 nM in test [5]; 37.2 nM in [6]; 14.6 nM in test [7]; 14.5 nM in test [8]. In addition, in test [9], the EC50 is 162 nM. Further, the “Max MFI” value in [3] stood at 23500 MFI; in test [4] it was 967000 MFI; in test [6] it was 5280 MFI; in test [7], 2.48e+06 MFI; in [9] it was 647000 MFI. Also, the “max MFI” value amounted to 28100 MFI in test [5] and 50000 MFI in test [8].

B3: TAC2245 (antibody, V domains shown)
VH: QVQLVQSGGGVVQPGRSLRLSCKASGYTFTRYTMHWVRQAPGKGLEWIGYINPSRGYTNYNQKVKDRFTISRDNSKNTAFLQMDSLRPEDTGVYFCARYYDDHYSLDYWGQGTPVTVSS
VL: DIQMTQSPSSLSASVGDRVTITCSASSSVSYMNWYQQTPGKAPKRWIYDTSKLASGVPSRFSGSGSGTDYTFTISSLQPEDIATYYCQQWSSNPFTFGQGTKLQIT
notes: also called huOKT3-C114S-gLC; parental huOKT3 anti-CD3 antibody
Consider B3, for which the “EC50 (read off the curve)” value in test [10] is about 0.3 nM.

B4: TY23104 (antibody, human IgG4 S228P, kappa)
light: EVGSYAYHDDDCPDDDYDCASSGRSAGGGGTPLGLAGSGGSDIQMTQSPSSLSASVGDRVTITCSASSSVSYMNWYQQTPGKAPKRWIYDTSKLASGVPSRFSGSGSGTDYTFTISSLQPEDIATYYCQQWSSNPFTFGQGTKLQITRTVAAPSVFIFPPSDEQLKSGTASVVCLLNNFYPREAKVQWKVDNALQSGNSQESVTEQDSKDSTYSLSSTLTLSKADYEKHKVYACEVTHQGLSSPVTKSFNRGEC
heavy: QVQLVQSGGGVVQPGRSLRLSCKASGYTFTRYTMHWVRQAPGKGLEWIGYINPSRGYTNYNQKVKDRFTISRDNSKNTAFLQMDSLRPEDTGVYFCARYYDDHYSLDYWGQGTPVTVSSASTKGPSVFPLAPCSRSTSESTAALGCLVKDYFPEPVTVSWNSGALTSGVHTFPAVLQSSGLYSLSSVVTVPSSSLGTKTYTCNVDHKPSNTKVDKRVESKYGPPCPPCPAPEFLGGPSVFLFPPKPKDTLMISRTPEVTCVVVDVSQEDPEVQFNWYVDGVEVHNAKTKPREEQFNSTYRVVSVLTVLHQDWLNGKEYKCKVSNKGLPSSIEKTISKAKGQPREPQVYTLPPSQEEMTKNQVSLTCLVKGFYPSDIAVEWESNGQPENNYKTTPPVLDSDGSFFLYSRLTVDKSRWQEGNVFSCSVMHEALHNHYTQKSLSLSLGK
notes: also called anti-CD3 SAFEbody
In the case of B4, in [10], the “EC50 (read off the curve)” value is about 70 nM.

B5: TY23118 (antibody)
light: EVGSYDADDPDCPADNNHCHYSGRSAGGGGTPLGLAGSGGSQAVVTQEPSLTVSPGGTVTLTCGSSTGAVTTSNYANWVQQKPGQAPRGLIGGTNKRAPGVPARFSGSLLGGKAALTLSGAQPEDEAEYYCALWYSNLWVFGGGTKLTVLRTVAAPSVFIFPPSDEQLKSGTASVVCLLNNFYPREAKVQWKVDNALQSGNSQESVTEQDSKDSTYSLSSTLTLSKADYEKHKVYACEVTHQGLSSPVTKSFNRGEC
heavy: not shown
For the molecule B5, in test [11], the “Jurkat NFAT reporter assay EC50” value was 7.9 nM and the “Masking efficiency (Jurkat NFAT reporter assay)” value (from here on “Masking efficiency”) turned out to be 419 fold.

B6: TY23110 (antibody)
light: B5 light with D6A, A7P, D8H, N16P, N17P, H18S, H20Y, Y21P
heavy: not shown
For the molecule B6, in test [11], the “Jurkat NFAT reporter assay EC50” value was 3.6 nM and the “Masking efficiency” value is 191 fold.

B7: TY23115 (antibody)
light: B5 light with D6P, A7Y, A14S, D15H, N16D, N17S, H18D, H20D, Y21N
heavy: not shown
B7: in [11], the “Jurkat NFAT reporter assay EC50” value came out at 7.7 nM and the “Masking efficiency” value is 409 fold.

Usually EC50 stands for the concentration giving half of the maximal effect. The term EC50 (read off the curve) denotes the concentration at which the effect is half-maximal.

Source of the values: patent publication US20250326860A1 (ADAGENE PTE, published 2025).
